In the RNAGym collection of RNA variant scans (doi:10.1073/pnas.2313332121):

B1: TPR t1 (parent)
chain: GACCAAUCUGCCCUCAGAGCUCGAGAACAUCUUCGGAUGCAGAGGAGGCAGGCUUCGGUGGCGCGAUAGCGCCAACGUCCUCAACCUCCAAUGCAUCCCACCACAUGAUGAUGCCUGAAGAGCCUUGGUUUUUUG

Variants of: B1
Assay: polymerase ribozyme fitness, log enrichment relative to wild type (log ratio); higher = more active; in vitro selection for triplet polymerase activity
How it was run: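 Mutant libraries of both subunits of a heterodimeric triplet polymerase ribozyme were PCR-built, transcribed, and selected once in triplicate, with frozen incubation at −7 °C and capture of gel-excised extended constructs on streptavidin beads before RT-PCR. Illumina sequencing of input and output libraries was filtered to genotypes with ≥10 input reads and ≥1 read per output. Fitness is the logarithm of genotype enrichment over wild-type enrichment, using inverse-variance-weighted replicate averages. The logarithm is base 2.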

| Variant | polymerase ribozyme fitness (log ratio) |
| --- | --- |
| C4U G48U C56G U78A C98U U112G G135A | -4.14 |
| C4G C73U U92C | -2.66 |
| C4A G17U C73U | -3.37 |
| C4U C13A C53U | -2.94 |
| C4U G10U C70G | -4.35 |
| C4U G48A G71U U106A | -1.2 |
| C4U A68G | -3.11 |
| C4U C15U C72G C99U G120A | -4.79 |
| A5C C53U | -1.88 |
| C4G C8G U81A A111C | -2.27 |
| C4G C8A C89A G120C | -0.0855 |
| C4U C13U G42U U55C G71A | -2.58 |
| C4G C11A G71A C89U A111U U112A C123A G127C | -2.11 |
| C4A U9A C72A U78C | -0.731 |
| C4G C15U G47C C73U A105U G107U C123G U126A | -7.47 |
| C4U C22G G48A C89A C124A | -3.16 |
| C4U C49A G60C C80A C115A | -5.4 |
| C4G C62A C99A G113U | -6.39 |
| C4U A43U C70U | -3.47 |
| C4G G10U C20G G69A C114U | -6.96 |
| A5C C13A C34A A83U A108G C124A | -5.47 |

| Variant | polymerase ribozyme fitness (log ratio) |
| --- | --- |
| C4G A6C C8G G48U C72G C76G A95U C124U | -4.99 |
| A5C C49U C53A C73U | -0.789 |
| C4G G44U U78G U96G U106C | -4.97 |
| A5C C8G C11A A37U C123U | 0.423 |
| C4U G10A C11G G69U | -0.117 |
| C4U G10U | -0.515 |
| C4U C12A A66C C70A | -5.72 |
| C4G C8U C15A G44U G61A | -4.85 |
| C4U G63C C76A A91C A100C C115G C123A | -4.89 |
| C4U A41G C62A A84C C115U | -4.65 |
| C4U G10A G52U U81G C123G U125A | -4.99 |
| C4U G71A G77A | -2.96 |
| C4G G47A C79A A90G G120A | -3.84 |
| C4U A18C | -3.99 |
| C4G A5U C73G C89U C101G G120A G135A | -3.57 |
| A5C C13U C70U A84C U131A | -1.24 |
| C4A U32C G61A U106A G127U U130G G135U | -2.56 |
| C4U A27U C64U A95C A111C A118G | -6.19 |
| C4U C49U U55G U96A | -2.11 |
| C4A G71A A100U C123U | -2.04 |
| C4G G71U C115U | -3.28 |

| Variant | polymerase ribozyme fitness (log ratio) |
| --- | --- |
| C4U C8G G36U U38A G44U C73A C124A | -4.82 |
| C4U G47U U112C | -0.0324 |
| C4A U87G | -1.28 |
| C4G C56U | -1.92 |
| C4G G110C | -5.58 |
| C4U C72G | -0.855 |
| C4U C72U | -0.857 |
| C4U C15G C28U A121G | -2.9 |
| C4G C8G A37U G45A U131G | -2.92 |
| C4A U78A C124G | 1.08 |
| C4A G69U G110A U112A G117A | -3.21 |
| C4A G63U A119G | -0.807 |
| C4G C13G C49A G60A | -4.79 |
| C4U A6C G48U G69U C86U C88A G113C | -3.07 |
| A5C A75G U130G U133A | -0.35 |
| A5C C20A A37G A84U A90C U109G | -4.05 |
| C4U C12U C13U C124G | 1.84 |
| C4G C8G G44A U131G | -3.14 |
| C4U A18G G58A G69U | -2.44 |
| C4G C104U | -0.878 |
| C4G A26U A75U | -4.4 |

| Variant | polymerase ribozyme fitness (log ratio) |
| --- | --- |
| C4U U38A G45U C49G G71A | -4.53 |
| C4A U32C G69U G113A | -2.74 |
| C4A G52A C53A A90U U130C | -3.34 |
| C4U G71A | -0.833 |
| C4A G36C C104U A119G A121U G128U U129A | 0.665 |
| C4U C8G C28A G35U G48C C49G C64U C88U A103G A111U | -6.13 |
| C4U G71U C97U C123A | 0.307 |
| C4G U9C A43G G47A C73A | -2.93 |
| C4U G60A | -0.911 |
| C4G C102A | -3.83 |
| C4G C13A A24C G63A G71C G113U G128C | -6.72 |
| C4A G48C C62A | -3.18 |
| A5C C53G C64U C94U | -1.07 |
| A5C C8U C62U | -0.266 |
| C4U C49U C97U G128U | -2.93 |
| C4U U21A C115G | -4.19 |
| C4U A100U | -1.08 |
| C4U C15U A18G G113A | -3.08 |
| C4U G52U G128U | -2.66 |
| C4U U32A G47A U112G | -5.29 |
| A5C A16C G44C | -4.17 |
